This is an account of results in article PMC314469, “Protein Interaction Networks by Proteome Peptide Scanning” (PLoS Biology, 2004).

T1: Abp1 SH3 (ABP1_YEAST), P15891
T1 chain: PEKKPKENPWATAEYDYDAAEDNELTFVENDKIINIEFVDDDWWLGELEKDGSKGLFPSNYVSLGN

B1: YBR236C 423-435 (peptide)
chain: KVKQYIEPESVKP
B2: YER093C 582-594 (peptide)
chain: LDVLKIKPLPYKP
B3: YOR023C 257-270 (peptide)
chain: LDEQPGFQILPFKP
B4: YBR003W 113-125 (peptide)
chain: KSDVPEDPIYSKP
B5: YBR056W 390-403 (peptide)
chain: LAPMMQKGNLPKRP
B6: YPL074W 344-356 (peptide)
chain: KRYDYKKPTVNRP
B7: YMR184W 66-78 (peptide)
chain: KTATTPPPVLRRP
B8: YBR136W 497-510 (peptide)
chain: KTGNPFVRINPNRP
B9: YDR409W 855-868 (peptide)
chain: KSRLIVNPFIPRRP
B10: YER025W 165-177 (peptide)
chain: KSDKEISPKSQRP
B11: YGR084C 83-96 (peptide)
chain: KTREPLQPRPPVKP
B12: YGR086C 227-239 (peptide)
chain: LDDSPVTPGETRP
B13: YGL202W 197-209 (peptide)
chain: KVMENWTPGAPKP
B14: YOR365C 124-137 (peptide)
chain: LSGIQDNLLSPLKP
B15: YIL171W 41-54 (peptide)
chain: LDATEAPIDLPQKP
B16: YNL284C 230-242 (peptide)
chain: LEKRGRVPLQARP
B17: YPL004C 227-239 (peptide)
chain: LDDSPVTPGEARP
B18: YGR230W 120-133 (peptide)
chain: LEFVRGKQNIPRKP
B19: YLR428C 53-65 (peptide)
chain: LEARTNFPLILRP
B20: YMR044W 279-292 (peptide)
chain: KTKAKKEKPKPPKP
B21: YGR197C 50-62 (peptide)
chain: KSLEDYRPPDEKP
B22: YDL058W 339-351 (peptide)
chain: LAFFHNIPKKVRP
B23: YGR193C 231-243 (peptide)
chain: LDLSNIKPIQLKP
B24: YML002W 638-650 (peptide)
chain: KSYRKAFPNMVKP
B25: YPL167C 291-304 (peptide)
chain: LEKLGDISDIPVKP
B26: YJL095W 316-329 (peptide)
chain: KSPSNIKLSIPARP
B27: YGL131C 1252-1264 (peptide)
chain: LEGNELYPLSYKP
B28: YOL021C 286-298 (peptide)
chain: LEGSVSLPRFSKP
B29: YIL030C 763-775 (peptide)
chain: KSNLLSVPEAYKP
B30: YHR077C 993-1005 (peptide)
chain: KVVASKIPVISKP
B31: YIR007W 614-626 (peptide)
chain: KSGSSQPPSFIKP
B32: YMR168C 296-309 (peptide)
chain: LSGSDYLQSGPRKP
B33: YDR389W 506-518 (peptide)
chain: KRRTSLFPWLHKP
B34: YOL156W 41-54 (peptide)
chain: LDANEPPIDLPQKP
B35: YKR003W 302-315 (peptide)
chain: KVFLDTHKESPLRP
B36: YGR109W-B 563-576 (peptide)
chain: KYREIIRNDLPPRP
B37: YDR285W 822-834 (peptide)
chain: LELTNPSPIQIKP
B38: YOL066C 148-160 (peptide)
chain: KVHRHEPPVTSKP
B39: YGR084C 56-68 (peptide)
chain: KTDAKLKPFIYRP
B40: YDL033C 211-223 (peptide)
chain: LAKYAGLPTAEKP
B41: YGL207W 558-570 (peptide)
chain: KSQTIILPIYGRP
B42: YJR066W 2073-2086 (peptide)
chain: LELAVPGTYFPGKP
B43: YGL251C 1061-1073 (peptide)
chain: KYIKEKGPSSIKP
B44: YLR429W 427-439 (peptide)
chain: LEEKKEQPKVEKP
B45: YKL126W 608-621 (peptide)
chain: KRLLMKGYIPPYKP
B46: YPL029W 708-720 (peptide)
chain: LDRLKKNPYAHKP
B47: YAL011W 331-343 (peptide)
chain: KRSLEENPVNKRP
B48: YLR427W 248-260 (peptide)
chain: LSGSIIGPKRVKP
B49: YHR006W 264-276 (peptide)
chain: KSRHFTYPEGVKP
B50: YHR204W 395-408 (peptide)
chain: LDNILPLEWYPLRP
B51: YJL219W 41-54 (peptide)
chain: LDATEPPIDLPQKP
B52: YLL051C 566-579 (peptide)
chain: LDHAIKLSRNPDKP
B53: YPR084W 202-215 (peptide)
chain: KSILHGLADEPRRP
B54: YHR184W 123-135 (peptide)
chain: KSELPKSPYRQKP

The test deals with T1, Abp1 SH3 (ABP1_YEAST), P15891. The experiment in a line: SPOT array.
The molecule B1 displayed a normalised SPOT signal, Boehringer light units (BLU); mean over the file's lines of this peptide of 100.

In turn, B2 registered a normalised SPOT signal, Boehringer light units (BLU); mean over the file's lines of this peptide of 2070.

In the case of B3, the normalised SPOT signal, Boehringer light units (BLU); mean over the file's lines of this peptide was found to be 160.

For the molecule B4, the normalised SPOT signal, Boehringer light units (BLU); mean over the file's lines of this peptide came to 19.8.

Regarding B5, the normalised SPOT signal, Boehringer light units (BLU); mean over the file's lines of this peptide is 3410.

B6: the normalised SPOT signal, Boehringer light units (BLU); mean over the file's lines of this peptide was determined as 71.4.

In turn, B7 showed a normalised SPOT signal, Boehringer light units (BLU); mean over the file's lines of this peptide of 9110.

The molecule B8 gave a normalised SPOT signal, Boehringer light units (BLU); mean over the file's lines of this peptide of 371.

Take B9: the normalised SPOT signal, Boehringer light units (BLU); mean over the file's lines of this peptide amounted to 360.

Molecule B10 showed a normalised SPOT signal, Boehringer light units (BLU); mean over the file's lines of this peptide of 75.6.

B11 returned a normalised SPOT signal, Boehringer light units (BLU); mean over the file's lines of this peptide of 706.

On to B12, for which the normalised SPOT signal, Boehringer light units (BLU); mean over the file's lines of this peptide is 64.5.

Turning to B13, the normalised SPOT signal, Boehringer light units (BLU); mean over the file's lines of this peptide was determined as 106.

Consider B14, for which the normalised SPOT signal, Boehringer light units (BLU); mean over the file's lines of this peptide came to 110.

Regarding B15, the normalised SPOT signal, Boehringer light units (BLU); mean over the file's lines of this peptide is 77.8.

In the case of B16, the normalised SPOT signal, Boehringer light units (BLU); mean over the file's lines of this peptide is 1240.

For B17, the normalised SPOT signal, Boehringer light units (BLU); mean over the file's lines of this peptide turned out to be 57.3.

On to B18, for which the normalised SPOT signal, Boehringer light units (BLU); mean over the file's lines of this peptide was 800.

For the molecule B19, the normalised SPOT signal, Boehringer light units (BLU); mean over the file's lines of this peptide amounted to 84.3.

Molecule B20 came in with a normalised SPOT signal, Boehringer light units (BLU); mean over the file's lines of this peptide of 119.

B21 yielded a normalised SPOT signal, Boehringer light units (BLU); mean over the file's lines of this peptide of 161.

With B22, the normalised SPOT signal, Boehringer light units (BLU); mean over the file's lines of this peptide is 221.

With B23, the normalised SPOT signal, Boehringer light units (BLU); mean over the file's lines of this peptide was 176.

Regarding B24, the normalised SPOT signal, Boehringer light units (BLU); mean over the file's lines of this peptide came to 217.

For B25, the normalised SPOT signal, Boehringer light units (BLU); mean over the file's lines of this peptide stood at 138.

The molecule B26 came in with a normalised SPOT signal, Boehringer light units (BLU); mean over the file's lines of this peptide of 107.

B27 came in with a normalised SPOT signal, Boehringer light units (BLU); mean over the file's lines of this peptide of 65.6.

Take B28: the normalised SPOT signal, Boehringer light units (BLU); mean over the file's lines of this peptide is 76.1.

As to B29, the normalised SPOT signal, Boehringer light units (BLU); mean over the file's lines of this peptide came to 200.

In the case of B30, the normalised SPOT signal, Boehringer light units (BLU); mean over the file's lines of this peptide turned out to be 126.

B31 had a normalised SPOT signal, Boehringer light units (BLU); mean over the file's lines of this peptide of 69.8.

The molecule B32 gave a normalised SPOT signal, Boehringer light units (BLU); mean over the file's lines of this peptide of 75.2.

For B33, the normalised SPOT signal, Boehringer light units (BLU); mean over the file's lines of this peptide stood at 122.

Molecule B34 displayed a normalised SPOT signal, Boehringer light units (BLU); mean over the file's lines of this peptide of 72.3.

Consider B35, for which the normalised SPOT signal, Boehringer light units (BLU); mean over the file's lines of this peptide turned out to be 73.1.

The molecule B36 displayed a normalised SPOT signal, Boehringer light units (BLU); mean over the file's lines of this peptide of 86.

The molecule B37 gave a normalised SPOT signal, Boehringer light units (BLU); mean over the file's lines of this peptide of 82.9.

On to B38, for which the normalised SPOT signal, Boehringer light units (BLU); mean over the file's lines of this peptide was found to be 69.6.

Molecule B39 yielded a normalised SPOT signal, Boehringer light units (BLU); mean over the file's lines of this peptide of 2160.

Turning to B40, the normalised SPOT signal, Boehringer light units (BLU); mean over the file's lines of this peptide is 55.9.

In turn, B41 yielded a normalised SPOT signal, Boehringer light units (BLU); mean over the file's lines of this peptide of 84.4.

In the case of B42, the normalised SPOT signal, Boehringer light units (BLU); mean over the file's lines of this peptide worked out at 40.

Molecule B43 displayed a normalised SPOT signal, Boehringer light units (BLU); mean over the file's lines of this peptide of 104.

B44 displayed a normalised SPOT signal, Boehringer light units (BLU); mean over the file's lines of this peptide of 86.1.

For the molecule B45, the normalised SPOT signal, Boehringer light units (BLU); mean over the file's lines of this peptide came out at 169.

As to B46, the normalised SPOT signal, Boehringer light units (BLU); mean over the file's lines of this peptide stood at 577.

In turn, B47 yielded a normalised SPOT signal, Boehringer light units (BLU); mean over the file's lines of this peptide of 33.4.

Consider B48, for which the normalised SPOT signal, Boehringer light units (BLU); mean over the file's lines of this peptide stood at 466.

B49 showed a normalised SPOT signal, Boehringer light units (BLU); mean over the file's lines of this peptide of 55.9.

As for B50, the normalised SPOT signal, Boehringer light units (BLU); mean over the file's lines of this peptide came out at 84.7.

In the case of B51, the normalised SPOT signal, Boehringer light units (BLU); mean over the file's lines of this peptide came to 125.

As to B52, the normalised SPOT signal, Boehringer light units (BLU); mean over the file's lines of this peptide was found to be 97.5.

Consider B53, for which the normalised SPOT signal, Boehringer light units (BLU); mean over the file's lines of this peptide amounted to 98.4.

The molecule B54 showed a normalised SPOT signal, Boehringer light units (BLU); mean over the file's lines of this peptide of 205.
